Biological target: PRDM16 R998Q (Mus musculus, UniProt A2A935 SEQ:1-1275, R998Q)
Assay: EMSA; R998Q completely loses DNA binding; same buffer as wild type
Settings: label: 32P end label

PRDM16 R998Q, sequence (A2A935 other isoform, or with tags, fused parts or gaps R998Q | R998Q R998Q): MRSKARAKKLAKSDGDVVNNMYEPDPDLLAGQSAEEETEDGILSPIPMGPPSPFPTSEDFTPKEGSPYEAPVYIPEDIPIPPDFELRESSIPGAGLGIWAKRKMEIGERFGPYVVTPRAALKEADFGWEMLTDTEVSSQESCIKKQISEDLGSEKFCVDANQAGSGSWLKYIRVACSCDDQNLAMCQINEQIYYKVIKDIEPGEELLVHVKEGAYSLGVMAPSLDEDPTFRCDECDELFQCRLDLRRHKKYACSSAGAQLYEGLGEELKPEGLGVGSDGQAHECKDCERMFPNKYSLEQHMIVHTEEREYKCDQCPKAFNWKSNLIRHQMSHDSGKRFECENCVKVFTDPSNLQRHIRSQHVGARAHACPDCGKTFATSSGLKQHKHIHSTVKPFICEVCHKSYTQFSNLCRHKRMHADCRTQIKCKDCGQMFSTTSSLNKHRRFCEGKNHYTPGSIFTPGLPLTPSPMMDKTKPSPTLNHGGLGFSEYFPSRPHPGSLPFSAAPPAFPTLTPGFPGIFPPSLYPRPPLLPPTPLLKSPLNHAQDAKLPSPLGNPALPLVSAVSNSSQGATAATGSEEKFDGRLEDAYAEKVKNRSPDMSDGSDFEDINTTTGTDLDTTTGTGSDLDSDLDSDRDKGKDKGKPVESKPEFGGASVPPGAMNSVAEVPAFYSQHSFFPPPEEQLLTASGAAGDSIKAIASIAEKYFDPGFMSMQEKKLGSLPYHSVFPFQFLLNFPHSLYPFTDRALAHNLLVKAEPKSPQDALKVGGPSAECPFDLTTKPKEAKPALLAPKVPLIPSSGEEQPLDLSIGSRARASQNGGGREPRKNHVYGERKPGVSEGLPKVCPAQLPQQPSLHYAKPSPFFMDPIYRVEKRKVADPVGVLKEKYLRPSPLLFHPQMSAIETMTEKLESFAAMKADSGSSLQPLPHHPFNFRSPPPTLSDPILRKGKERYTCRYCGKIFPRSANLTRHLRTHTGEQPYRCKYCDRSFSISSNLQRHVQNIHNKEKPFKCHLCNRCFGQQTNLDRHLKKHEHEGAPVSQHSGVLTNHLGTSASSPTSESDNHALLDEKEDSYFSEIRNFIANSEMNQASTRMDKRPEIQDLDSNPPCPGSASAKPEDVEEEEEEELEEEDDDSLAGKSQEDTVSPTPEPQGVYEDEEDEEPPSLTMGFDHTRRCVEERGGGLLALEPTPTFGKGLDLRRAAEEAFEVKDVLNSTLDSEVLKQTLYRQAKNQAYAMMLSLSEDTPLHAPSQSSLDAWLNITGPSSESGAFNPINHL

B1: PRDM16 consensus binding site EMSA probe (dsDNA)
DNA 1: GATCCGACAAGATAAGATAAGGATCTATAAGAAGATGAGGTATG
DNA 2: CATACCTCATCTTCTTATAGATCCTTATCTTATCTTGTCGGATC
- binding result: no binding
